Reference: patent publication US20200129532

Target: T1, HA-tagged VDR (vitamin D receptor), wild type, P11473
T1 chain: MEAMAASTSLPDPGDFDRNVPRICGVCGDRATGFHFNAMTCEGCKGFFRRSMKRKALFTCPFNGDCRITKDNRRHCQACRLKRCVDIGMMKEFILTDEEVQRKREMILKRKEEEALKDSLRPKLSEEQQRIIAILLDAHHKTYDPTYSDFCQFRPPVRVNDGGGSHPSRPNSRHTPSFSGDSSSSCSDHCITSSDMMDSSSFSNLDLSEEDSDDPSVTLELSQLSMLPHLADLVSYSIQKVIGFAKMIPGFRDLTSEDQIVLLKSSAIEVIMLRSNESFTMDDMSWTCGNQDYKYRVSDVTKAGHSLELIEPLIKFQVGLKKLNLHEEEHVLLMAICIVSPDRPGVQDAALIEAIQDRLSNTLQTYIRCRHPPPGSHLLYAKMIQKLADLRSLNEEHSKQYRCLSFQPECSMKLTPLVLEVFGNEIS

B1: PCAF, wild-type, overexpressed in 293T cells (protein)
chain: MSEAGGAGPGGCGAGAGAGAGPGALPPQPAALPPAPPQGSPCAAAAGGSGACGPATAVAAAGTAEGPGGGGSARIAVKKAQLRSAPRAKKLEKLGVYSACKAEESCKCNGWKNPNPSPTPPRADLQQIIVSLTESCRSCSHALAAHVSHLENVSEEEMNRLLGIVLDVEYLFTCVHKEEDADTKQVYFYLFKLLRKSILQRGKPVVEGSLEKKPPFEKPSIEQGVNNFVQYKFSHLPAKERQTIVELAKMFLNRINYWHLEAPSQRRLRSPNDDISGYKENYTRWLCYCNVPQFCDSLPRYETTQVFGRTLLRSVFTVMRRQLLEQARQEKDKLPLEKRTLILTHFPKFLSMLEEEVYSQNSPIWDQDFLSASSRTSQLGIQTVINPPPVAGTISYNSTSSSLEQPNAGSSSPACKASSGLEANPGEKRKMTDSHVLEEAKKPRVMGDIPMELINEVMSTITDPAAMLGPETNFLSAHSARDEAARLEERRGVIEFHVVGNSLNQKPNKKILMWLVGLQNVFSHQLPRMPKEYITRLVFDPKHKTLALIKDGRVIGGICFRMFPSQGFTEIVFCAVTSNEQVKGYGTHLMNHLKEYHIKHDILNFLTYADEYAIGYFKKQGFSKEIKIPKTKYVGYIKDYEGATLMGCELNPRIPYTEFSVIIKKQKEIIKKLIERKQAQIRKVYPGLSCFKDGVRQIPIESIPGIRETGWKPSGKEKSKEPRDPDQLYSTLKSILQQVKSHQSAWPFMEPVKRTEAPGYYEVIRFPMDLKTMSERLKNRYYVSKKLFMADLQRVFTNCKEYNPPESEYYKCANILEKFFFSKIKEAGLIDK
  VDR acetylation: VDR acetylation indeed increased when expressed together with PCAF
